According to US20030170823A1 (ZymoGenetics, published 2003):

Biological target: T1, CRF2-4/zcytor11 heterodimeric receptor on BaF3 cells (human, UniProt Q08334 20-325, limits assumed)
T1 sequence 1: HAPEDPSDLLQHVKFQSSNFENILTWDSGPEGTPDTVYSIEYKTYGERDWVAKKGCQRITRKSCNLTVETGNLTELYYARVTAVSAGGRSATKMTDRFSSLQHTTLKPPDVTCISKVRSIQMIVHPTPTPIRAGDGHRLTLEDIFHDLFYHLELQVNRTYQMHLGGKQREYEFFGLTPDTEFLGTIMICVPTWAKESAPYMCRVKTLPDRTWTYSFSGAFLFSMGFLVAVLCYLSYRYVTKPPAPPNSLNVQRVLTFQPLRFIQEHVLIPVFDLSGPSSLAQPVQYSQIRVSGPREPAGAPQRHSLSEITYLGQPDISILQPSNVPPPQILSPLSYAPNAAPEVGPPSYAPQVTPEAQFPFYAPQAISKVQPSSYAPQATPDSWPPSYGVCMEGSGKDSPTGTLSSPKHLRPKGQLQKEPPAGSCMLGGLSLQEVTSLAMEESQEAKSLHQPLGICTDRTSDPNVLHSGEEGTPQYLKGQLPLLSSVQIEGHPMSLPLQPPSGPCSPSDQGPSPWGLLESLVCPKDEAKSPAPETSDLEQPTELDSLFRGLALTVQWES
T1 sequence 2: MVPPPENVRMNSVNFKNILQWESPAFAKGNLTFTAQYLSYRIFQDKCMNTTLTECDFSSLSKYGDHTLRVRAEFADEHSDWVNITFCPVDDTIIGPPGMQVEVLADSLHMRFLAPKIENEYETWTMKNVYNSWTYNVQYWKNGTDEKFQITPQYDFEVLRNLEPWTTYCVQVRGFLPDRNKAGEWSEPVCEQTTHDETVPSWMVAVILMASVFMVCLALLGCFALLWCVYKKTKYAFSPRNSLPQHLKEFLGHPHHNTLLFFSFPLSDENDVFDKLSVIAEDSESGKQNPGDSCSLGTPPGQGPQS
Assay: cell-based or functional assay

B1: ZCYTO18-CEE polypeptide purified from BHK 570 cells (ligand)
chain: APISSHCRLDKSNFQQPYITNRTFMLAKEASLADNNTDVRLIGEKLFHGVSMSERCYLMKQVLNFTLEEVLFPQSDRFQPYMQEVVPFLARLSNRLSTCHIEGDDLHIQRNVQKLKDTVKKLGESGEIKAIGELDLLFMSLRNACIEYMPME
proliferation of BaF3/CRF2-4/zcytor11 cells (Alamar Blue), fold induction at 0.06 ng/ml ZCYTO18-CEE: ~2 fold induction
proliferation of BaF3/CRF2-4/zcytor11 cells (Alamar Blue), fold over background at 50 ng/ml ZCYTO18-CEE: ~15 fold over background
